# Starred links: 1 amine or outer side, 2 acyl side, 3 side chain; linkers in the order of their positions; H or OH if unused. Non-standard residues stand in square brackets, D forms with d. Groups on a side chain read outwards from the residue. No end group written: not given here. *: point of attachment. C18 diacid = O=C(O)CCCCCCCCCCCCCCCCC(=O)*; γGlu = O=C(O)[C@H](CCC(=O)[*:2])N[*:1]; αMeF = C[C@](N)(Cc1ccccc1)C(=O)O; AEEA = NCCOCCOCC(=O)O; Aib = CC(C)(N)C(=O)O
# B1: Peptide 425 (peptide)
# peptide: H[Aib]QGTFTSDVSK[αMeF]LDKK([AEEA-AEEA-γGlu-C18 diacid])RAQDFVRWLKA[Aib]G-OH
# modifications: N-terminus assumed
# SMILES: CC(C)C[C@H](NC(=O)[C@H](Cc1c[nH]c2ccccc12)NC(=O)[C@H](CCCNC(=N)N)NC(=O)[C@@H](NC(=O)[C@H](Cc1ccccc1)NC(=O)[C@H](CC(=O)O)NC(=O)[C@H](CCC(N)=O)NC(=O)[C@H](C)NC(=O)[C@H](CCCNC(=N)N)NC(=O)[C@H](CCCCNC(=O)COCCOCCNC(=O)COCCOCCNC(=O)CC[C@H](NC(=O)CCCCCCCCCCCCCCCCC(=O)O)C(=O)O)NC(=O)[C@H](CCCCN)NC(=O)[C@H](CC(=O)O)NC(=O)[C@H](CC(C)C)NC(=O)[C@](C)(Cc1ccccc1)NC(=O)[C@H](CCCCN)NC(=O)[C@H](CO)NC(=O)[C@@H](NC(=O)[C@H](CC(=O)O)NC(=O)[C@H](CO)NC(=O)[C@@H](NC(=O)[C@H](Cc1ccccc1)NC(=O)[C@@H](NC(=O)CNC(=O)[C@H](CCC(N)=O)NC(=O)C(C)(C)NC(=O)[C@@H](N)Cc1c[nH]cn1)[C@@H](C)O)[C@@H](C)O)C(C)C)C(C)C)C(=O)N[C@@H](CCCCN)C(=O)N[C@@H](C)C(=O)NC(C)(C)C(=O)NCC(=O)O
# B2: Peptide 424 (peptide)
# peptide: H[Aib]QGTFTSDVSK[αMeF]LDKK([AEEA-AEEA-γGlu-C18 diacid])RAQDFVRWLL[Aib]TK-OH
# modifications: N-terminus assumed
# SMILES: CC(C)C[C@H](NC(=O)[C@H](Cc1c[nH]c2ccccc12)NC(=O)[C@H](CCCNC(=N)N)NC(=O)[C@@H](NC(=O)[C@H](Cc1ccccc1)NC(=O)[C@H](CC(=O)O)NC(=O)[C@H](CCC(N)=O)NC(=O)[C@H](C)NC(=O)[C@H](CCCNC(=N)N)NC(=O)[C@H](CCCCNC(=O)COCCOCCNC(=O)COCCOCCNC(=O)CC[C@H](NC(=O)CCCCCCCCCCCCCCCCC(=O)O)C(=O)O)NC(=O)[C@H](CCCCN)NC(=O)[C@H](CC(=O)O)NC(=O)[C@H](CC(C)C)NC(=O)[C@](C)(Cc1ccccc1)NC(=O)[C@H](CCCCN)NC(=O)[C@H](CO)NC(=O)[C@@H](NC(=O)[C@H](CC(=O)O)NC(=O)[C@H](CO)NC(=O)[C@@H](NC(=O)[C@H](Cc1ccccc1)NC(=O)[C@@H](NC(=O)CNC(=O)[C@H](CCC(N)=O)NC(=O)C(C)(C)NC(=O)[C@@H](N)Cc1c[nH]cn1)[C@@H](C)O)[C@@H](C)O)C(C)C)C(C)C)C(=O)N[C@@H](CC(C)C)C(=O)NC(C)(C)C(=O)N[C@H](C(=O)N[C@@H](CCCCN)C(=O)O)[C@@H](C)O
# B3: Peptide 422 (peptide)
# peptide: H[Aib]QGTFTSDVSK[αMeF]LDRK([AEEA-AEEA-γGlu-C18 diacid])RAQDFVRWLL[Aib]TE-NH2
# modifications: N-terminus assumed
# SMILES: CC(C)C[C@H](NC(=O)[C@H](Cc1c[nH]c2ccccc12)NC(=O)[C@H](CCCNC(=N)N)NC(=O)[C@@H](NC(=O)[C@H](Cc1ccccc1)NC(=O)[C@H](CC(=O)O)NC(=O)[C@H](CCC(N)=O)NC(=O)[C@H](C)NC(=O)[C@H](CCCNC(=N)N)NC(=O)[C@H](CCCCNC(=O)COCCOCCNC(=O)COCCOCCNC(=O)CC[C@H](NC(=O)CCCCCCCCCCCCCCCCC(=O)O)C(=O)O)NC(=O)[C@H](CCCNC(=N)N)NC(=O)[C@H](CC(=O)O)NC(=O)[C@H](CC(C)C)NC(=O)[C@](C)(Cc1ccccc1)NC(=O)[C@H](CCCCN)NC(=O)[C@H](CO)NC(=O)[C@@H](NC(=O)[C@H](CC(=O)O)NC(=O)[C@H](CO)NC(=O)[C@@H](NC(=O)[C@H](Cc1ccccc1)NC(=O)[C@@H](NC(=O)CNC(=O)[C@H](CCC(N)=O)NC(=O)C(C)(C)NC(=O)[C@@H](N)Cc1c[nH]cn1)[C@@H](C)O)[C@@H](C)O)C(C)C)C(C)C)C(=O)N[C@@H](CC(C)C)C(=O)NC(C)(C)C(=O)N[C@H](C(=O)N[C@@H](CCC(=O)O)C(N)=O)[C@@H](C)O
# B4: Peptide 426 (peptide)
# peptide: H[Aib]QGTFTSDVSK[αMeF]LDKK([AEEA-AEEA-γGlu-C18 diacid])RAQDFVRWLLR[Aib]K-OH
# modifications: N-terminus assumed
# SMILES: CC(C)C[C@H](NC(=O)[C@H](Cc1c[nH]c2ccccc12)NC(=O)[C@H](CCCNC(=N)N)NC(=O)[C@@H](NC(=O)[C@H](Cc1ccccc1)NC(=O)[C@H](CC(=O)O)NC(=O)[C@H](CCC(N)=O)NC(=O)[C@H](C)NC(=O)[C@H](CCCNC(=N)N)NC(=O)[C@H](CCCCNC(=O)COCCOCCNC(=O)COCCOCCNC(=O)CC[C@H](NC(=O)CCCCCCCCCCCCCCCCC(=O)O)C(=O)O)NC(=O)[C@H](CCCCN)NC(=O)[C@H](CC(=O)O)NC(=O)[C@H](CC(C)C)NC(=O)[C@](C)(Cc1ccccc1)NC(=O)[C@H](CCCCN)NC(=O)[C@H](CO)NC(=O)[C@@H](NC(=O)[C@H](CC(=O)O)NC(=O)[C@H](CO)NC(=O)[C@@H](NC(=O)[C@H](Cc1ccccc1)NC(=O)[C@@H](NC(=O)CNC(=O)[C@H](CCC(N)=O)NC(=O)C(C)(C)NC(=O)[C@@H](N)Cc1c[nH]cn1)[C@@H](C)O)[C@@H](C)O)C(C)C)C(C)C)C(=O)N[C@@H](CC(C)C)C(=O)N[C@@H](CCCNC(=N)N)C(=O)NC(C)(C)C(=O)N[C@@H](CCCCN)C(=O)O
# B5: Peptide 423 (peptide)
# peptide: H[Aib]QGTFTSDVSK[αMeF]LDKK([AEEA-AEEA-γGlu-C18 diacid])RAQDFVRWLK[Aib]TE-OH
# modifications: N-terminus assumed
# SMILES: CC(C)C[C@H](NC(=O)[C@H](Cc1c[nH]c2ccccc12)NC(=O)[C@H](CCCNC(=N)N)NC(=O)[C@@H](NC(=O)[C@H](Cc1ccccc1)NC(=O)[C@H](CC(=O)O)NC(=O)[C@H](CCC(N)=O)NC(=O)[C@H](C)NC(=O)[C@H](CCCNC(=N)N)NC(=O)[C@H](CCCCNC(=O)COCCOCCNC(=O)COCCOCCNC(=O)CC[C@H](NC(=O)CCCCCCCCCCCCCCCCC(=O)O)C(=O)O)NC(=O)[C@H](CCCCN)NC(=O)[C@H](CC(=O)O)NC(=O)[C@H](CC(C)C)NC(=O)[C@](C)(Cc1ccccc1)NC(=O)[C@H](CCCCN)NC(=O)[C@H](CO)NC(=O)[C@@H](NC(=O)[C@H](CC(=O)O)NC(=O)[C@H](CO)NC(=O)[C@@H](NC(=O)[C@H](Cc1ccccc1)NC(=O)[C@@H](NC(=O)CNC(=O)[C@H](CCC(N)=O)NC(=O)C(C)(C)NC(=O)[C@@H](N)Cc1c[nH]cn1)[C@@H](C)O)[C@@H](C)O)C(C)C)C(C)C)C(=O)N[C@@H](CCCCN)C(=O)NC(C)(C)C(=O)N[C@H](C(=O)N[C@@H](CCC(=O)O)C(=O)O)[C@@H](C)O
# How the values were obtained:
# [1] = target: human glucagon receptor (hGCGR) (human, UniProt P47871 26-477); experiment: cell-based or functional assay
# human glucagon receptor (hGCGR), sequence (P47871 26-477): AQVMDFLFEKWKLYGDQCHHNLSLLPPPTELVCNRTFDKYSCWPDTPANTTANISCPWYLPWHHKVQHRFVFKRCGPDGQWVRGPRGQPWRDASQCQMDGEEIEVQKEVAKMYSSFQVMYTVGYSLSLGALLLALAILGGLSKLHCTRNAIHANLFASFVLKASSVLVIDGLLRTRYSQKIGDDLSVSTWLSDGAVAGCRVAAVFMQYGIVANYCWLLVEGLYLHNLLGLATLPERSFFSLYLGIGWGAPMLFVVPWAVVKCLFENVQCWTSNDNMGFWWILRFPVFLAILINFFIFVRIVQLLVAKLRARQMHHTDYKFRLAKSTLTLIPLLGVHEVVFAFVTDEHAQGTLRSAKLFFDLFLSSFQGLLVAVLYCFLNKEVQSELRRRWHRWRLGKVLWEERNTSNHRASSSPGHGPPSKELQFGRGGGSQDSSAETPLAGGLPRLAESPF
# [2] = target: human GLP-1 receptor (hGLP-1R) (human, UniProt P43220 24-463); experiment: cell-based or functional assay
Binder,hGluc-R EC50 (pM) [1] [pM],hGLP-1R EC50 (pM) [2] [pM]
B1,827,11.5
B2,129,15.5
B3,123,27.6
B4,61.2,7.3
B5,2220,26.1
H[Aib]QGTFTSDVSK[αMeF]LDTK([AEEA-AEEA-γGlu-C18 diacid])RARDFVQWLLE[Aib]G (not fully specified (C-terminus)) [Peptide 427],47.2,12.4
H[Aib]QGTFTSDVSK[αMeF]LDTK([AEEA-AEEA-γGlu-γGlu-C18 diacid])RARDFVQWLLE[Aib]G (not fully specified (C-terminus)) [Peptide 428],10.5,33.1

# From patent US20230357348A1 (AstraZeneca / MedImmune, published 2023)
